*1 amine or outer side, *2 acyl side, *3 side chain or, on linkers, in order; H or OH if unused. Where a SMILES comes first, the peptide text is derived from it. [ ]: non-standard residue; d: D form. The star is where a group is joined. ξ: configuration not given here. Dil(5ξ) = CCC(C)[C@@H]([C@@H](CC(=O)[*:2])OC)N(C)[*:1]; Dolaproine = CO[C@@H]([C@@H]1CCCN1)[C@@H](C)C(=O)O; Hexanoyl(6-maleimido) = O=C1C=CC(=O)N1CCCCCC(=O)*; PABC = O=C(OCc1ccc(N[*:1])cc1)[*:2]; X1 = C[C@@H](N*)[C@@H](O)c1ccccc1; Cit = NC(=O)NCCC[C@H](N)C(=O)O; NMeV = CN[C@H](C(=O)O)C(C)C
Experiment: Hydrolysis of Pertuzumab conjugated samples obtained using different small molecule compounds, hydrolysis percentage by Native MS
Assay type: physicochemical
Settings: for hydrolysis of conjugated samples (in words) / 6 h hydrolysis percentage / 18 h hydrolysis percentage: 50 mM PB pH 7.8, 35° C.; for hydrolysis of conjugated samples (in words): summary of Table 3-2; for hydrolysis speed of conjugated samples (in words): hydrolysis systems A-D, pH 7.8, summary of Table 3-3
Protocol: The analysis conditions were as follows: • Capillary activation: the capillary was rinsed with 0.1 mol/L sodium hydroxide for 10 min, 0.1 mol/L hydrochloric acid for 5 min and water for injection for 2 min respectively at 20 psi; and then rinsed with SDS-MW-Gel Buffer for 10 min at 70 psi; afterwards, pre-separation was performed for 10 min at 20 psi, at a column temperature of 25° C. and a voltage of −15 kv. The program was run: at 70 psi, the capillary was rinsed with 0.1 mol/L sodium hydroxide for 3 min, 0.1 mol/L hydrochloric acid for 1 min and water for injection for 1 min respectively; then the gel was poured for 10 min, the sample was loaded for 40 s at −5 kv, and the separation program was run ([…], 20 psi). The column temperature was set to 25° C., the voltage for separation was set to −15 kv, and the separation was performed for 40 min. • (4) Size exclusion chromatography (SEC-HPLC): • Sample treatment: the sample was diluted to 2.0-3.0 mg/ml with the mobile phase, and then was centrifuged at 12000 rpm for 10 min; and the supernatant was taken for analysis. • Chromatographic column: TOSOH, TSKgel G3000SWXL, 5 μm, 7.8 mm×300 mm; • Mobile phase: 100 mM PB+200 mM arginine hydrochloride, 5% isopropanol (pH 6.8); • Flow rate: 0.6 mL/min; • Detection wavelength: 280 nm; • Column temperature: 30° C.; • Loading volume: 10 uL; • Elution gradient: isocratic elution. • (5) Native MS: • Chromatographic column: ACQUITY UPLC Protein BEH SEC 200A (1.7 μm, 2.1 mm×150 mm); • Mobile phase: 50 mM ammonium acetate; • Running time: 12 min; • Flow rate: 0.065 mL/min; • Loading volume: 2 μL; • Column temperature: 30° C.; • Detection wavelength: 280 nm; • Capillary: 3.0 kV; • Cone voltage: 140 V; • Source offset: 80 V; • Source temperature: 125° C.; • Desolvation temperature: 250° C.; • Desolvation gas flow: 600 L/h. • (6) LC-MS:
Pertuzumab was reduced and conjugated as described in section a in Example 2. Conjugated samples obtained using different small molecule compounds were subjected to hydrolysis at 35° C. for a time period in the range of 3-18 hours, in 50 mM sodium dihydrogen phosphate-disodium hydrogen phosphate buffer, pH 7.8. The hydrolysis systems were sampled at different time points, and detected by Native MS.
Pertuzumab was reduced and conjugated as described in section a in Example 2. Conjugated samples obtained using different small molecule compounds were displaced to different hydrolysis solution systems (A: 50 mM sodium dihydrogen phosphate-disodium hydrogen phosphate buffer, pH 7.8; B: 50 mM sodium dihydrogen phosphate-disodium hydrogen phosphate buffer+3% arginine, pH 7.8; C: 50 mM potassium dihydrogen phosphate-dipotassium hydrogen phosphate buffer, pH 7.8; and D: 50 mM tromethamine-hydrochloric acid buffer, pH 7.8) for hydrolysis. Then the hydrolysis systems were sampled at different time points, and detected by Native MS.

[1] = Pertuzumab conjugate, Native MS
[2] = Pertuzumab conjugate, 50 mM sodium dihydrogen phosphate-disodium hydrogen phosphate buffer, pH 7.8, 35° C., Native MS
[3] = hydrolysis system A: 50 mM sodium dihydrogen phosphate-disodium hydrogen phosphate buffer, pH 7.8
[4] = hydrolysis system B: 50 mM sodium phosphate buffer+3% arginine, pH 7.8
[5] = hydrolysis system C: 50 mM potassium dihydrogen phosphate-dipotassium hydrogen phosphate buffer, pH 7.8
[6] = hydrolysis system D: 50 mM tromethamine-hydrochloric acid buffer, pH 7.8

SMILES | hydrolysis of conjugated samples (in words) | 6 h hydrolysis percentage [1] | 18 h hydrolysis percentage [1] | 3 h hydrolysis percentage [2] | 1 h hydrolysis percentage [3] | 3 h hydrolysis percentage [3] | 1 h hydrolysis percentage [4] | 3 h hydrolysis percentage [4] | 1 h hydrolysis percentage [5] | 3 h hydrolysis percentage [5] | 1 h hydrolysis percentage [6] | 3 h hydrolysis percentage [6] | hydrolysis speed of conjugated samples (in words)
CCC(C)[C@@H]([C@@H](CC(=O)N1CCC[C@H]1[C@H](OC)[C@@H](C)C(=O)N[C@H](C)[C@@H](O)c1ccccc1)OC)N(C)C(=O)[C@@H](NC(=O)[C@H](C(C)C)N(C)C(=O)OCc1ccc(NC(=O)[C@H](CCCNC(N)=O)NC(=O)[C@@H](NC(=O)COCCOCCOCCOc2c(OC)cc(N3C(=O)C(Sc4ccccc4)=C(Sc4ccccc4)C3=O)cc2OC)C(C)C)cc1)C(C)C (stereo partly shown) [A-2] | relatively low percentage of hydrolysis | 30.33% | 48.43% | 17.85% |  |  |  |  |  |  |  |  | 
CCC(C)[C@@H]([C@@H](CC(=O)N1CCC[C@H]1[C@H](OC)[C@@H](C)C(=O)N[C@H](C)[C@@H](O)c1ccccc1)OC)N(C)C(=O)[C@@H](NC(=O)[C@H](C(C)C)N(C)C(=O)OCc1ccc(NC(=O)[C@H](CCCNC(N)=O)NC(=O)[C@@H](NC(=O)COCCOCCOCCOc2c(F)cc(N3C(=O)C(Sc4ccccc4)=C(Sc4ccccc4)C3=O)cc2F)C(C)C)cc1)C(C)C (stereo partly shown) [A-3] |  |  |  |  | 89.31% | 99.32% | 93.48% | 99.41% | 92.52% | 99.70% | 90.33% | 99.31% | hydrolyzed rapidly in all above buffers
CCC(C)[C@@H]([C@@H](CC(=O)N1CCC[C@H]1[C@H](OC)[C@@H](C)C(=O)N[C@H](C)[C@@H](O)c1ccccc1)OC)N(C)C(=O)[C@@H](NC(=O)[C@H](C(C)C)N(C)C(=O)OCc1ccc(NC(=O)[C@H](CCCNC(N)=O)NC(=O)[C@@H](NC(=O)COCCOCCOCCOc2ccc(N3C(=O)C(Sc4ccccc4)=C(Sc4ccccc4)C3=O)c(C(F)(F)F)c2)C(C)C)cc1)C(C)C (stereo partly shown) [A-4] | relatively low percentage of hydrolysis | 38.49% | 53.46% | 25.99% | 15.65% | 25.99% | 18.17% | 35.23% | 14.98% | 26.13% | 14.56% | 25.32% | required more time for being hydrolyzed
CCC(C)[C@@H]([C@@H](CC(=O)N1CCC[C@H]1[C@H](OC)[C@@H](C)C(=O)N[C@H](C)[C@@H](O)c1ccccc1)OC)N(C)C(=O)[C@@H](NC(=O)[C@H](C(C)C)N(C)C(=O)OCc1ccc(NC(=O)[C@H](CCCNC(N)=O)NC(=O)[C@@H](NC(=O)COCCOCCOCCOc2ccc(N3C(=O)C(Sc4ccccc4)=C(Sc4ccccc4)C3=O)cn2)C(C)C)cc1)C(C)C (stereo partly shown) [A-5] |  | 16.76% | 28.81% | 7.29% |  |  |  |  |  |  |  |  | 
CCC(C)[C@@H]([C@@H](CC(=O)N1CCC[C@H]1[C@H](OC)[C@@H](C)C(=O)N[C@H](C)[C@@H](O)c1ccccc1)OC)N(C)C(=O)[C@@H](NC(=O)[C@H](C(C)C)N(C)C(=O)OCc1ccc(NC(=O)[C@H](CCCNC(N)=O)NC(=O)[C@@H](NC(=O)COCCOCCOCCOc2ccc(N3C(=O)C(Sc4ccc(C(=O)NC)cc4)=C(Sc4ccc(C(=O)NC)cc4)C3=O)cc2C(F)(F)F)C(C)C)cc1)C(C)C (stereo partly shown) [B-6] | relatively low percentage of hydrolysis | 33.32% | 47.60% | 22.86% |  |  |  |  |  |  |  |  | 
CCC(C)[C@@H]([C@@H](CC(=O)N1CCC[C@H]1[C@H](OC)[C@@H](C)C(=O)N[C@H](C)[C@@H](O)c1ccccc1)OC)N(C)C(=O)[C@@H](NC(=O)[C@H](C(C)C)N(C)C(=O)OCc1ccc(NC(=O)[C@H](CCCNC(N)=O)NC(=O)[C@@H](NC(=O)COCCOCCOCCOc2ccc(N3C(=O)C(Sc4ccc(C(=O)NC)cc4)=C(Sc4ccc(C(=O)NC)cc4)C3=O)cc2OC)C(C)C)cc1)C(C)C (stereo partly shown) [B-7] | relatively low percentage of hydrolysis | 54.71% | 76.15% | 34.10% | 15.83% | 34.10% | 26.12% | 51.25% | 15.12% | 35.12% | 16.62% | 36.43% | required more time for being hydrolyzed
CCC(C)[C@@H]([C@@H](CC(=O)N1CCC[C@H]1[C@H](OC)[C@@H](C)C(=O)N[C@H](C)[C@@H](O)c1ccccc1)OC)N(C)C(=O)[C@@H](NC(=O)[C@H](C(C)C)N(C)C(=O)OCc1ccc(NC(=O)[C@H](CCCNC(N)=O)NC(=O)[C@@H](NC(=O)COCCOCCOCCOc2ccc(N3C(=O)C(Sc4ccc(C(=O)N5CCOCC5)cc4)=C(Sc4ccc(C(=O)N5CCOCC5)cc4)C3=O)cc2)C(C)C)cc1)C(C)C (stereo partly shown) [C-1] | hydrolyzed all most completely within 3 hours or 6 hours | 98.25% |  | 79.08% | 85.31% | 99.56% | 94.52% | 99.87% | 87.52% | 99.70% | 84.78% | 99.79% | hydrolyzed rapidly in all above buffers
CCC(C)[C@@H]([C@@H](CC(=O)N1CCC[C@H]1[C@H](OC)[C@@H](C)C(=O)N[C@H](C)[C@@H](O)c1ccccc1)OC)N(C)C(=O)[C@@H](NC(=O)[C@H](C(C)C)N(C)C(=O)OCc1ccc(NC(=O)[C@H](CCCNC(N)=O)NC(=O)[C@@H](NC(=O)COCCOCCOCCOc2c(F)cc(N3C(=O)C(Sc4ccc(C(=O)N5CCOCC5)cc4)=C(Sc4ccc(C(=O)N5CCOCC5)cc4)C3=O)cc2F)C(C)C)cc1)C(C)C (stereo partly shown) [C-3] | hydrolyzed all most completely within 3 hours or 6 hours | 99.56% |  | 98.31% | 90.31% | 99.56% | 97.52% | 99.41% | 90.55% | 99.70% | 88.36% | 99.34% | hydrolyzed rapidly in all above buffers
CCC(C)[C@@H]([C@@H](CC(=O)N1CCC[C@H]1[C@H](OC)[C@@H](C)C(=O)N[C@H](C)[C@@H](O)c1ccccc1)OC)N(C)C(=O)[C@@H](NC(=O)[C@H](C(C)C)N(C)C(=O)OCc1ccc(NC(=O)[C@H](CCCNC(N)=O)NC(=O)[C@@H](NC(=O)CCCCCN2C(=O)C=CC2=O)C(C)C)cc1)C(C)C (stereo partly drawn) [D-1] ({Hexanoyl(6-maleimido)}-V[Cit][PABC][NMeV]V[Dil(5ξ)][Dolaproine]-X1) |  | 7.67% | 21.44% | 4.74% |  |  |  |  |  |  |  |  | 

From patent publication US20230372526A1, “PREPARATION METHOD FOR BIS-S[…] ANTIBODY-DRUG CONJUGATE” (MABWELL (SHANGHAI) BIOSCIENCE CO., LTD., priority 2020, published 2023)
